Results taken from patent publication US20170088610A1 (RINAT NEUROSCIENCE, published 2017).
Changes are numbered by the printed parent chain. Numbers in names are those of the source. Where two headings read alike, the source gives them in different places. One block for each binder: values may come before it.

Assays:
[1] = target: T1, human nerve growth factor (human, UniProt P01138 122-241); assay: BIAcore SPR, Fab over immobilised human NGF
T1 construct: Immobilised on CM5 chips for BIAcore, soluble in neuron survival assays; also called human NGF; hNGF
T1 sequence (P01138 122-241 limits assumed): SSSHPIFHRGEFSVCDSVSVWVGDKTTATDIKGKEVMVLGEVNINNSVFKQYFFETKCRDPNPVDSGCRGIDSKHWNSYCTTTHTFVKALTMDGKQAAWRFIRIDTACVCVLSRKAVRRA

[2] = target: T1, human nerve growth factor; assay: BIAcore SPR screen, Fab over immobilised human NGF
Procedure: (§1) A screening BIAcore assay was optimized to determine the affinity of Fab clones from libraries. Supernatants of small culture lysates were injected at […] for 2 min. Dissociation times of 10 to 15 minutes were used for determination of a single exponential dissociation rate (koff) using BIAevaluation software. […] Clones showing improved (slower) koff values were expressed at large scale and full kinetic parameters, kₒₙ and koff, were determined on purified protein.
(§2) For affinity screening experiments, each library was further paired with the corresponding CDR-grafted light or heavy chain (for example, the H1/H2 library was paired with CDR-grafted light chain), the antibody was expressed, and affinity to human NGF of the individual clones was screened using the BIACORE surface plasmon resonance (SPR) system (BIAcore, Inc. Piscataway, N.J.) according to the manufacturer's instructions and as described above. koff, kₒₙ and KD were determined. Antibody clones were ranked based on koff rates, since generally most variation in affinity is seen in koff rates, and further because koff rates are independent of antibody concentration.

[3] = target: T1, human nerve growth factor; assay: BIAcore SPR screen, Fab over immobilised human NGF; KD calculated from koff with kon 4e4 M-1s-1
Procedure: as §1, §2

[4] = target: T1, human nerve growth factor; assay: BIAcore SPR screen, Fab over immobilised human NGF; remark: listed apart in the source
Procedure: as §1

[5] = target: T1, human nerve growth factor; assay: BIAcore SPR screen, Fab over immobilised human NGF; KD calculated from koff with kon 4e4 M-1s-1; remark: listed apart in the source
Procedure: as §1

[6] = target: T1, human nerve growth factor; assay: BIAcore SPR screen, Fab over immobilised human NGF; KD calculated from koff with kon 4e4 M-1s-1; 8L2-6D5 template, not H19-L129 template
Procedure: (§3) Affinities of anti-NGF Fabs and monoclonal antibodies were determined using the BIAcore3000™ surface plasmon resonance (SPR) system (BIAcore, INC, Piscaway N.J.). CM5 chips were activated with N-ethyl-N′-(3-dimethylaminopropyl)-carbodiinide hydrochloride (EDC) and N-hydroxysuccinimide (NETS) according to the supplier's instructions. Human NGF was diluted into 10 mM sodium acetate pH 4.0 and injected over the activated chip at a concentration of 0.005 mg/mL. Using variable flow time across the individual chip channels, two ranges of antigen density were achieved: 100-200 response units (RU) for detailed kinetic studies and 500-600 RU for screening assays. The chip was blocked with ethanolamine. […] HBS-EP buffer (0.01M HEPES, pH 7.4, 0.15 NaCl, 3 mM EDTA, 0.005% Surfactant […]) was used as running buffer for all the BIAcore assays.
as §1

[7] = target: T1, human nerve growth factor; assay: cell-based or functional assay
rat nerve growth factor [8] = target: T2, rat nerve growth factor (rat, UniProt P25427 122-241); assay: cell-based or functional assay
T2 sequence (P25427 122-241 limits assumed): as the sequence (P01138 122-241 limits assumed) above, with S3T, I6V, R9M, M37T, D60A, D65E, M92T, G94D, V117A, A120G counted along it

[9] = target: T1, human nerve growth factor; assay: BIAcore SPR, purified Fab over immobilised human NGF (100 RU); purified Fab 3C, 100 RU NGF on chip
Procedure: as §3
(§4) Briefly, several concentrations of antibodies (Fabs) were injected for 2 minutes onto a CM5 chip with 100 RU of immobilized human NGF on it, and permitted to dissociate for 1800 seconds. […] Data was analyzed using BIAevaluation software following the manufacturer's instructions.

[10] = target: T1, human nerve growth factor; assay: BIAcore SPR screen, Fab over immobilised human NGF; remark: listed apart in the source
[11] = target: T1, human nerve growth factor; assay: BIAcore SPR screen, Fab over immobilised human NGF; KD calculated from koff with kon 4e4 M-1s-1; screening KD calculated from koff with the fixed kon 4e4; paragraph 422 gives about 1 nM
rat nerve growth factor [12] = target: T2, rat nerve growth factor; assay: cell-based or functional assay; remark: listed apart in the source
[13] = target: T1, human nerve growth factor; assay: cell-based or functional assay; remark: listed apart in the source
[14] = target: T1, human nerve growth factor; assay: BIAcore SPR, Fabs over immobilised human NGF
Procedure: as §3, §4

[15] = target: T1, human nerve growth factor; assay: BIAcore SPR, Fab over immobilised human NGF (100 RU)
Procedure: as §3, §4

[16] = target: T1, human nerve growth factor; assay: BIAcore SPR, purified Fab over immobilised human NGF (100 RU); purified Fab E3, 100 RU NGF on chip
Procedure: as §3, §4

[17] = target: T1, human nerve growth factor; assay: BIAcore SPR screen, Fab over immobilised human NGF; remark: listed apart in the source
Procedure: as §1
(§5) 20-80 clones from each small library were screened using BIAcore analysis as described herein. Samples were simultaneously analyzed by BIAcore for binding affinity to NGF in one channel of the BIAcore chip and for presence of Fab by binding to a penta-histag antibody in another channel of the sensor chip, to detect the his tag at the C terminus of the heavy chain. Clones that expressed protein were classified as having the same affinity, worse affinity, better affinity or no binding, using koff to classify: The results of this analysis are shown in Table 5.

[18] = target: T1, human nerve growth factor; assay: BIAcore SPR screen, Fab over immobilised human NGF; KD calculated from koff with kon 4e4 M-1s-1; remark: listed apart in the source
Procedure: as §1, §5

B1: 8L2-4D5 (CDR-grafted antibody, template) (Fab, V domains shown)
VH: QVQLQESGPGLVKPSETLSLTCTVSGFSLIGYDINWIRQPPGKGLEWIGMIWGDGTTDYNSALKSRVTISVDTSKNQFSLKLSSVTAADTAVYYCARGGYYYGTSYYFDYWGQGTLVTVS
VL: DIQMTQSPSSLSASVGDRVTITCRASQDISNHLNWYQQKPGKAPKLLIYYISRFHSGVPSRFSGSGSGTDFTFTISSLQPEDIATYYCQQSKTLPYTFGQGTKLEIKR
Kd [1]: ~38 nM

B3: H19-L129 template Fab with L_S91E; L_K92K and H_Y101Y; H_G103A (Fab, V domains shown)
VH: B1 VH with I34L, M50I, L63V, V71K, G103A
VL: B1 VL with D28S, H32N, I51T, S91E
notes: See note of m8
koff [4]: 2e-05 s⁻¹ | Kd [5]: 0.5 nM

B4: 8L2-6D5 template Fab with L_S91E; L_K92A and H_Y101W; H_G103A (Fab, V domains shown)
VH: B1 VH with V71K, Y101W, G103A
VL: B1 VL with S91E, K92A
notes: See note of m8
koff [4]: 0.00055 s⁻¹ | Kd [5]: 13 nM

B5: 8L2-6D5 template Fab with L_S91E; L_K92R and H_Y101W; H_G103A (Fab, V domains shown)
VH: B1 VH with V71K, Y101W, G103A
VL: B1 VL with S91E, K92R
notes: See note of m8
koff [4]: 0.0001 s⁻¹ | Kd [6]: 2.5 nM

B8: H19-L129 (combined clone, H1 H2 L1 L2 matured) (Fab, V domains shown)
VH: B1 VH with I34L, M50I, L63V, V71K
VL: B1 VL with D28S, H32N, I51T
notes: See note of m8; also called H19-L129 Fab; Fab H19-L129
IC50, human NGF-dependent survival of mouse E13.5 trigeminal neurons (1.5 pM NGF) [7]: 9.6 pM | IC50, human NGF-dependent survival of mouse E13.5 trigeminal neurons (15 pM NGF) [7]: 60.1 pM | IC50, rat NGF-dependent survival of mouse E13.5 trigeminal neurons (1.5 pM NGF) (rat nerve growth factor [8]): 6 pM | IC50, rat NGF-dependent survival of mouse E13.5 trigeminal neurons (15 pM NGF) (rat nerve growth factor [8]): 31 pM | Kd [1]: ~1 nM | koff [10]: 0.00011 s⁻¹ | koff [4]: 0.00011 s⁻¹ | Kd [11]: ~2.75 nM

B10: H19-L129 template Fab with L_S91E; L_K92S and H_Y101W; H_G103S (Fab, V domains shown)
VH: B1 VH with I34L, M50I, L63V, V71K, Y101W, G103S
VL: B1 VL with D28S, H32N, I51T, S91E, K92S
notes: See note of m8
koff [4]: 4.7e-05 s⁻¹ | Kd [5]: 1.1 nM

B11: H19-L129 template Fab with L_S91E; L_K92R and H_Y101Y; H_G103A (Fab, V domains shown)
VH: B1 VH with I34L, M50I, L63V, V71K, G103A
VL: B1 VL with D28S, H32N, I51T, S91E, K92R
notes: See note of m8
koff [4]: 1.5e-05 s⁻¹ | Kd [5]: 0.37 nM

B12: 8L2-6D5 (CDR-grafted antibody with framework mutation V71K) (Fab, V domains shown)
VH: B1 VH with V71K
VL: B1 VL
notes: Fab (human IgG2 CH1 + C-kappa, His tag at heavy chain C terminus); also called 8L2-6D5 Fab; 8L2-6D5 (control)
IC50, human NGF-dependent survival of mouse E13.5 trigeminal neurons (1.5 pM NGF) [7]: 462 pM | IC50, human NGF-dependent survival of mouse E13.5 trigeminal neurons (15 pM NGF) [7]: 1580 pM | IC50, rat NGF-dependent survival of mouse E13.5 trigeminal neurons (1.5 pM NGF) (rat nerve growth factor [8]): 169 pM | IC50, rat NGF-dependent survival of mouse E13.5 trigeminal neurons (15 pM NGF) (rat nerve growth factor [8]): 730 pM | Kd [1]: ~15 nM | koff [2]: 0.001 s⁻¹ | koff [17]: 0.001 s⁻¹ | koff [4]: 0.001 s⁻¹ | Kd [3]: 25 nM | Kd [18]: 25 nM | Kd [5]: 25 nM

Continued, in another order:

koff [2]: 0.00045 s⁻¹ | Kd [3]: 11 nM
B2: light chain library clone L129 (Fab, V domains shown)
VH: B1 VH with V71K
VL: B1 VL with D28S, H32N, I51T
notes: paired with the CDR-grafted heavy chain; See note of m8

koff [2]: 0.00046 s⁻¹ | Kd [3]: 11 nM
B6: light chain library clone L208 (Fab, V domains shown)
VH: B1 VH with V71K
VL: B1 VL with D28Y, I51T
notes: See note of m8

koff [4]: 1.4e-05 s⁻¹ | Kd [9]: ~0.35 nM | koff [9]: ~1.4e-05 s⁻¹ | Kd [5]: 0.35 nM
B7: clone 3C (Fab) (Fab, V domains shown)
VH: B1 VH with I34L, M50I, L63V, V71K, Y101W, G103A
VL: B1 VL with D28S, H32N, I51T, S91E, K92R
notes: same L1, L2, H1, H2 mutations as 3E; See note of m8; also called Fab 3C
IC50, human NGF-dependent survival of mouse E13.5 trigeminal neurons (1.5 pM NGF) [7]: 5.6 pM | IC50, human NGF-dependent survival of mouse E13.5 trigeminal neurons (15 pM NGF) [7]: 80.9 pM | IC50, rat NGF-dependent survival of mouse E13.5 trigeminal neurons (1.5 pM NGF) (rat nerve growth factor [8]): 6 pM | IC50, rat NGF-dependent survival of mouse E13.5 trigeminal neurons (15 pM NGF) (rat nerve growth factor [8]): 31.6 pM

fold higher binding affinity than parent mouse antibody 911 [14]: ~50 fold | koff [4]: 1.2e-05 s⁻¹ | Kd [15]: ≤ 0.07 nM | koff [15]: < 4e-05 s⁻¹ | kon [15]: 600000 M⁻¹ s⁻¹ | koff [16]: ~4.2e-05 s⁻¹ | Kd [5]: 0.3 nM
B9: antibody E3 (Fab) (Fab, V domains shown)
VH: B1 VH with I34L, M50I, L63V, V71K, Y101W, G103A
VL: B1 VL with D28S, H32N, I51T, S91E, K92H
notes: Fab with human IgG2 CH1 and human kappa constant domain; His tag at the heavy chain C terminus in the E. coli format; also called Fab E3; 3E Fab
IC50, rat NGF-dependent survival of mouse E13.5 trigeminal neurons (15 pM NGF) (rat nerve growth factor [12]): ~31.6 pM | IC50, human NGF-dependent survival of mouse E13.5 trigeminal neurons (1.5 pM NGF) [7]: < 1.2 pM | IC50, human NGF-dependent survival of mouse E13.5 trigeminal neurons (15 pM NGF) [7]: < 21 pM | IC50, rat NGF-dependent survival of mouse E13.5 trigeminal neurons (1.5 pM NGF) (rat nerve growth factor [8]): < 1.3 pM | IC50, rat NGF-dependent survival of mouse E13.5 trigeminal neurons (15 pM NGF) (rat nerve growth factor [8]): < 8.3 pM | IC50 (read off the curve), NGF-dependent survival of E13.5 mouse trigeminal neurons (0.4 ng/ml human NGF, 48 h) [13]: ~0.02 nM binding sites
